Experimental data taken from US20260297172 (published 2026).

T1: S100A9 (human, UniProt P06702)
T1 chain: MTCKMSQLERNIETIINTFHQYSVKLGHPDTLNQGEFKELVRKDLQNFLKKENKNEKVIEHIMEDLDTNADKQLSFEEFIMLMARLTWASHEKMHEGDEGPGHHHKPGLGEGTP

T2: S100A8 (human, UniProt P05109)
T2 chain: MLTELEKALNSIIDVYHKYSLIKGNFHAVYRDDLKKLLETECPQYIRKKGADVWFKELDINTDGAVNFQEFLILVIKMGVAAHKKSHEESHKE

T3: S100A8/A9 (human, UniProt P05109)
T3 chain 1: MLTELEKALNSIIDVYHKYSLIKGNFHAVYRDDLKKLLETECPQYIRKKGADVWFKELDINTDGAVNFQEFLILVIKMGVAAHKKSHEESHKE
T3 chain 2: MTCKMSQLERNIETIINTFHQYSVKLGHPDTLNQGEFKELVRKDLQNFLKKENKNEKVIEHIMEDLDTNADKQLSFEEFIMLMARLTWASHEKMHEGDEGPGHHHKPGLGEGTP

B1: 14G9 (antibody, V domains shown)
VH: QEQLVESGGGLVQPEGSLTLTCTASGFSFSSDYYMCWVRQAPGKGLEWIACIGGGYGGSPYYATWAKGRFTISKTSSTAVTLQMTSLTAADTATHFCARGVPGSSCFFDLWGPGTLVTVSS
VL: DVAMTQTPASVSEPVGGTVTIKCQASQSIGSSLAWYQQKSGQPPKLLIYDAFDLASGVSSRFKGSGSGTEYTLTISDLECADAATYFCLGGYYDANTFGGGTEVVVKG
B2: 8H6 (antibody, V domains shown)
VH: CQSLEESGGDLVKPEGSLTLTCKASGFSFSSGCWVCWVRQAPGKGLEWIACIYTGDGDTYYANWARGRFTVSRTSSTTVTLQLTSLTAADTATYFCASPQPGDITYLGFWGPGTLVTVSS
VL: DIVMTQTPASVSEPVGGTVTIKCQASQNINSYLSWYQQRPGQPPKLLISLASDLASGVPSRFKGSESGTDYTLTISDLECADAATYYCQGYFADSGSSGRSWAFGGGTEVVVQG
B3: 6C8 (antibody, V domains shown)
VH: QEQLVESGGGLVTLGGSLKLSCKASGIDFSIYGISWVRQAPGKGLEWIAYIYPDYSTTDYASWVNGRFTISFDNAQNTVFLEMTSLTAADTATYFCARRYSGYYGLWGPGTLVTVSS
VL: ALVMTQTPSSVSAPVGGTVTIKCQASQSISSYLAWYQQKPGQRPKLLIYGASSLESGVPSRFKGSGSGTEYTLTISDLECDDAATYYCQGAHAGSSADAFGGGTEVVVKG
B4: ROIS-2 (antibody, V domains shown)
VH: NVQLVESGGGLIHPGGSLSLSCKASGFSFSSGCWVCWVRQAPGKGLEWVACIYTGDGDTYYADSVKGRFTISRTSSKTTVYLQMNSLRAEDTAVYYCASPQPGDITYLGFWGQGTLVTVSS
VL: DIHMTQSPSSLSASVGDTVTITCQASQNINSYLSWYQQKPGKAPKLLISLASDLASGVPSRFSGSESGTDYTLTISSLQPEDFATYYCQGYFADSGSSGRSWAFGQGTKVEIKR
B5: 8H6-HC (antibody, V domains shown)
VH: CQSLEESGGDLVKPEGSLTLTCKASGFSFSSGCWVCWVRQAPGKGLEWIACIYTGDGDTYYANWARGRFTVSRTSSTTVTLQLTSLTAADTATYFCASPQPGDITYLGFWGPGTLVTVSS
VL: DIVMTQTPASVSEPVGGTVTIKCQASQNINSYLSWYQQRPGQPPKLLISLASDLASGVPSRFKGSESGTDYTLTISDLECADAATYYCQGYFADSGSSGRSWAFGGGTEVVVQG
B6: ROIS-3 (antibody, V domains shown)
VH: QVSLEESGGDLVQPGGSLRLACVASGFSFSSGCWVCWVRQAPGKGLEWVSCIYTGDGDTYYANSVRGRFTVSRQNSTTSVYLQMNSLRADDTALYFCASPQPGDITYLGFWGPGTLVTVSS
VL: DIHMTQSPSSLSASVGDTVTITCQASQNINSYLSWYQQKPGKAPKLLISLASDLASGVPSRFSGSESGTDYTLTISSLQPEDFATYYCQGYFADSGSSGRSWAFGQGTKVEIKR
B7: ROIS-5 (antibody, V domains shown)
VH: QVSLEESGGDLVQPGGSLRLACVASGFSFSSGCWVCWVRQAPGKGLEWVSCIYTGDGDTYYANSVRGRFTVSRRNSTTSVYLQMNSLRADDTALYFCASPQPGDITYLGFWGPGTLVTVSS
VL: DIHMTQSPSSLSASVGDTVTITCQASQNINSYLSWYQQKPGKAPKLLISLASDLASGVPSRFSGSESGTDYTLTISSLQPEDFATYYCQGYFADSGSSGRSWAFGQGTKVEIKR
B8: ROIS-4 (antibody, V domains shown)
VH: QVSLEESGGDLVQPGGSLRLACVASGFSFSSGCWVCWVRQAPGKGLEWVSCIYTGDGDTYYANSVRGRFTVSRKNSTTSVYLQMNSLRADDTALYFCASPQPGDITYLGFWGPGTLVTVSS
VL: DIHMTQSPSSLSASVGDTVTITCQASQNINSYLSWYQQKPGKAPKLLISLASDLASGVPSRFSGSESGTDYTLTISSLQPEDFATYYCQGYFADSGSSGRSWAFGQGTKVEIKR
B9: ROIS-1 (antibody, V domains shown)
VH: NVQLVESGGGLIHPGGSLSLSCKASGFSFSSGCWVCWVRQAPGKGLEWVACIYTGDGDTYYADSVRGRFTISRTSSKTTVYLQMNSLRAEDTAVYYCASPQPGDITYLGFWGQGTLVTVSS
VL: DIHMTQSPSSLSASVGDTVTITCQASQNINSYLSWYQQEPGKAPKLLISLASDLASGVPSRFSGSESGTDYTLTISSLQPEDFATYYCQGYFADSGSSGRSWAFGQGTKVEIKR
B10: 8H6-mIgG2a (antibody, V domains shown)
VH: CQSLEESGGDLVKPEGSLTLTCKASGFSFSSGCWVCWVRQAPGKGLEWIACIYTGDGDTYYANWARGRFTVSRTSSTTVTLQLTSLTAADTATYFCASPQPGDITYLGFWGPGTLVTVSS
VL: DIVMTQTPASVSEPVGGTVTIKCQASQNINSYLSWYQQRPGQPPKLLISLASDLASGVPSRFKGSESGTDYTLTISDLECADAATYYCQGYFADSGSSGRSWAFGGGTEVVVQG
B11: 6C8-mIgG2a (antibody, V domains shown)
VH: QEQLVESGGGLVTLGGSLKLSCKASGIDFSIYGISWVRQAPGKGLEWIAYIYPDYSTTDYASWVNGRFTISFDNAQNTVFLEMTSLTAADTATYFCARRYSGYYGLWGPGTLVTVSS
VL: ALVMTQTPSSVSAPVGGTVTIKCQASQSISSYLAWYQQKPGQRPKLLIYGASSLESGVPSRFKGSGSGTEYTLTISDLECDDAATYYCQGAHAGSSADAFGGGTEVVVKG

Biological target: T1, S100A9
Assay: ELISA

Q: Does B1 bind?
A: Result: no binding

Q: Does B2 bind?
A: Result: no binding

Biological target: T2, S100A8
Assay: ELISA

Q: Does B3 bind?
A: Result: no binding

Q: Does B1 bind?
A: Result: no binding

Biological target: T3, S100A8/A9
Assay: BLI

Q: For B4, which Kd is on record?
A: The Kd was 0.608 nM.

Q: For B5, which Kd is on record?
A: Its Kd is 1.37 nM.

Q: How did the Kd turn out when B6 was run?
A: The Kd was 0.0477 nM.

Q: For B7, which Kd is on record?
A: Its Kd is 0.623 nM.

Q: With B8 as the binder, how does the Kd read?
A: The Kd was 1.76 nM.

Q: For B9, which Kd is on record?
A: Its Kd is 0.789 nM.

Biological target: T3, S100A8/A9
Assay: competition ELISA, blocking CD69 binding

Q: For B10, which IC50 is on record?
A: Its IC50 is ~1.25 mg/L.

Q: How did the IC50 turn out when B11 was run?
A: The IC50 was ~2.5 mg/L.
